From the nanobody polyreactivity screen of Harvey et al. (2022) come the findings set out here.

The nature of the data set: yeast display, Sf9 membrane polyspecificity reagent, FACS + sequencing; frameworks hold sequencing errors. In a few lines: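 In a synthetic yeast display library (Saccharomyces cerevisiae BJ5465), nanobody expression was induced with galactose for 36–48 hours. FACS gates were set low and high (top ~1%) using anti-HA fluorescence for expression and streptavidin fluorescence for binding of the Sf9 membrane reagent. Each polyreactivity label is drawn from the gate of origin.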
As for “QVQLVESGGGLVQAGGSLRLSCAASGRIFVRYAMGWYRQAPGKERELVAAITKSGGSTYYADSVKGRFTISRDNAKNTVYLQMNSLKPEDTAVYYCNADRFYIDYTNTYDSIRDYWGQGTQVTVSS”, the “polyreactivity (PSR sort gate)” value is on record as “low polyreactivity”.
For “QVQLVESGGGLVQAGGSLRLSCAASGRIFVRYTMGWYRQAPGKERELVAAITKRGGSTYYADSVKGRFTISRDNAKNTVYLQMNSLKPEDTAVYYCATDGLGYNRPQDEYWGQGTQVTVSS”, the “polyreactivity (PSR sort gate)” value is recorded as “high polyreactivity”.
With “QVQLVESGGGLVQAGGSLRLSCAASGRIFVSNDMGWYRQAPGKERELVAAISWSDDSTHYADSVKGRFTISRDNAKNTVYLQMNSLKPEDTAVYYCNKQRYYSTWRYDYWGQGTQVTVSS” the entry was “low polyreactivity”; with “QVQLVESGGGLVQAGGSLRLSCAASGRIFVSYDMGWYRQAPGKEREFVAAIRRSGSSTYYADSVKGRFTISRDNAKNTVYLQMNSLKPEDTAVYYCAAYQRSRTLRRYDYWGQGTQVTVSS”, “high polyreactivity”; with “QVQLVESGGGLVQAGGSLRLSCAASGRIFVTYAMGWYRHAPGKERELVAAITSDGSTSYADSVKGRFTISRDNAKNTGYLQMNRLKPEDTAVYYSAKDFFEHSPVSHTYSSSKYEYWGQGTQVTVSS”, “low polyreactivity”.
With “QVQLVESGGGLVQAGGSLRLSCAASGRIFVTYAMGWYRQAPGKERELVAVISWSGGSTYYADSVKGRFTISRDNAKNTVYLQMNSLKPEDTAVYYCARGLRKVRFDYWGQGTQVTVSS” the entry was “low polyreactivity”; with “QVQLVESGGGLVQAGGSLRLSCAASGRIFVVNAMGWYRQAPGKERELVATITRGASTYADSVKGRFTISRDNAKNTVYLQMNSLKPEDTAVYYCAARSGSWGQGTQVTVSS”, “high polyreactivity”.
On to “QVQLVESGGGLVQAGGSLRLSCAASGRIFVVNAMGWYRQAPGTERELVAAITRRGGSTYADSVKGRFTISRDNAKNTVYLQMNSLKPEDTAVYYCNAESYYGIFRYKYDYWGQGTQVTVSS”, for which the “polyreactivity (PSR sort gate)” value is given as “high polyreactivity”.
With “QVQLVESGGGLVQAGGSLRLSCAASGRIFVVNDMGWYRQAPGKERELVAAMNSGGRTNYADSVKGRFTISRDNAKNTVYLQMPSLKPEDTAVYYCNAKRTGPWFLHVPVYYWGQGTQVTVSS”, the “polyreactivity (PSR sort gate)” value was “low polyreactivity”.
On to “QVQLVESGGGLVQAGGSLRLSCAASGRIFVVYAMGWYRQAPGKESELVATISGGSTNYADSVKGRFTISRDNAKNTVYLQMNSVKPDDTAVYYCGMEYWGQGTQVTVSS”, for which the “polyreactivity (PSR sort gate)” value is recorded as “low polyreactivity”.
With “QVQLVESGGGLVQAGGSLRLSCAASGRIFVVYTMRWYRQAPGNERELVASIRGSGDSTNYADSVKGRFTISRDNAKNTVYLQMNSLKPEDTAVYYCAADLPWSRRYSYRYGYWGQGTQVTVSS” the entry was “low polyreactivity”.
Consider “QVQLVESGGGLVQAGGSLRLSCAASGRIFVYNAMGWYRQAPGKERELVAAISKGGGSTYYADSVKGRFTISRDNAKNTVYLQMNSLKPEDTAVYYCAAVVSGRYWGKKITYDYWGQGTQVSVSS”, for which the “polyreactivity (PSR sort gate)” value is “high polyreactivity”.
For “QVQLVESGGGLVQAGGSLRLSCAASGRIFVYNTMGWYRQAPGKERELVAAITSGGNTYYADSVKGRFTISRDNAKNSVYLQMNSLKPEDTAVYYCNAYPGYDPYRRYDYWGQGTQVTVSS” the value was “high polyreactivity”; for “QVQLVESGGGLVQAGGSLRLSCAASGRIFVYYAMGWYRQAPGKERELVAAITSGGGSTYYADSVKGRFTISRDNAKNTVYLQMNSLKPEDTAVYYCNKGYYYPYDYWGQGTQVTVSS”, “high polyreactivity”.
With “QVQLVESGGGLVQAGGSLRLSCAASGRIFVYYAMGWYRQAPGKERELVAAMNAGGSTNYADSVKGRFTISRDNAKNNVYLQMYSLKPEDTAVYYCAAVRRSRYSYRGYYWGQGTQVTVSS” the entry was “high polyreactivity”.
With “QVQLVESGGGLVQAGGSLRLSCAASGRIFVYYAMGWYRQAPGKERELVATISSGGSTYYADSVKGRFTISRDNAKNTVYLQMNSLKPEDTAVYYCAADNVNRYLAYYYKGDYWGQGTQVTVSS” the entry was “low polyreactivity”; with “QVQLVESGGGLVQAGGSLRLSCAASGRIFWANAMGWYRQAPGKERELVATISRSGGTTYYADSVKGRFTISRDNAKNTVYLQMNSLKPEATAVYYCAAEDWSLYDYGDRLWYSPYYYWGQGTQVTVSS”, “high polyreactivity”.
In the case of “QVQLVESGGGLVQAGGSLRLSCAASGRIFWDNAMGWYRQAPGKERELVAAISDSVVITYYADSVKGRFTISRDNAKNTVYLQMNSLKPEDTAVYYCNTDARYDEYDEFDYWGQGTQVTVSS”, the “polyreactivity (PSR sort gate)” value was “low polyreactivity”.
For the sequence “QVQLVESGGGLVQAGGSLRLSCAASGRIFWDNAMGWYRQAPGKVRELVAVMNSGDSTNYADSVKGRFTISRDNAKNTVYLQMNSLKPEDTAVYYCATDFIGVIYDYWGQGTQVTVSS”, the “polyreactivity (PSR sort gate)” value is “low polyreactivity”.
With “QVQLVESGGGLVQAGGSLRLSCAASGRIFWDYAMGWYRQAPGKERELVAGISYSGGSTSYADSVKGRFTISRDNAKNTVYLQMNSLKPEDTAVYYCAARPSGTFFRDYDYWGQGTQVTVSS” the entry was “low polyreactivity”; with “QVQLVESGGGLVQAGGSLRLSCAASGRIFWGSAMGWFRQAPGKERELVAAITRSGGRTYYADSVKGRFTISRDNAKNTVYLQRNSLKPDDTPVYYCAAYYWYKWGYKYGYWGQGTQVTVST”, “high polyreactivity”.
With “QVQLVESGGGLVQAGGSLRLSCAASGRIFWGYAMGWSRQAPGKERELVAGITYSGGSTYYADSVKGRFTISRDNAKNTVYLQMNSLKPEDTAVYYCAAAKSYRSGSWYEYWGQGTEVTVSS” the entry was “high polyreactivity”.
For “QVQLVESGGGLVQAGGSLRLSCAASGRIFWGYAMGWYRQAPGKERELVAAISSGGSTNYADSVKGRFTISRDNAKNTVYLQMNSLKPEDTAVYYCAKDHAYTSAPHQYASEYYYWGQGTQVTVSS” the value was “low polyreactivity”; for “QVQLVESGGGLVQAGGSLRLSCAASGRIFWLNAMGWYRQAPGKEREFVASITYGSDSTYYADSVKGRFTISRDNAKNTVYLHMNSLKPEDTAVYYCNREGWHYGPYGYWGQGTQVTVSS”, “low polyreactivity”.
As to “QVQLVESGGGLVQAGGSLRLSCAASGRIFWSNAMGWYRQAPGKERELVATISSGGRTYYADSVKGRFTISRDNAKNTVYLQMNSLKPEDTAVYYCAAVTFWFWPGMDYWGQGTQVTVSS”, the “polyreactivity (PSR sort gate)” value is “low polyreactivity”.
For “QVQLVESGGGLVQAGGSLRLSCAASGRIFWSYAMGWYRQAPGKEREFVAVITWSGGSTYYADSVKGRFTISRDNAKNTVYLQMNSLKPEDTAVYYCAAGQWWYQVRFDYWGQGTQVTVSS” the value was “low polyreactivity”; for “QVQLVESGGGLVQAGGSLRLSCAASGRIFWSYAMGWYRQAPGKEREFVAVITWSGGSTYYADSVKGRFTISREYAKNTVYLEMNSLKPEDTAVYYCKADYYGPYRDYGYWGQGTQVTVSS”, “low polyreactivity”.
Regarding “QVQLVESGGGLVQAGGSLRLSCAASGRIFWSYGMGWYRQAPGKERELVAAITNTGDGTYYADSVKGRFTISRDNAKNTVYLQMNSLKPEDTAVYYCAVDYRGYWYWEYDYWGQGTQVTVSS”, the “polyreactivity (PSR sort gate)” value is “high polyreactivity”.
For “QVQLVESGGGLVQAGGSLRLSCAASGRIFWVNAMGWYRKAPGKERELVARIRGRSGSTYYADSVKGRFTISRDNAKNPVYLQMNSLKREDTAVYYCAAREFRRPDIFLRDYWGQGTQVTVSS”, the “polyreactivity (PSR sort gate)” value is listed as “high polyreactivity”.
With “QVQLVESGGGLVQAGGSLRLSCAASGRIFWVYAMGWYRQAPGKEREFVADITWTGGSTYYADSVKGRFTISRDNAKNTVYLQMNSLKPEDTAVYYCAADSWSNYDYWGQGTQVTVSS” the entry was “high polyreactivity”; with “QVQLVESGGGLVQAGGSLRLSCAASGRIFWWYAMGWYRQAPGKERELVAAISTGSRTYYADSVKGRFTISRDNAKNTVYLQMNSLKPEDTAVYYCNKDYWYGYSDFDYWGQGTQVTVSS”, “low polyreactivity”.
With “QVQLVESGGGLVQAGGSLRLSCAASGRIFWYNAMGWYRQAPGKERELVATITSAGDTNYADSVKGRFTISRDNAKNTVFLQMNSLKPEDTAVYYCAKYYRWLITRRGSNDYWGQGTQVTVSS”, the “polyreactivity (PSR sort gate)” value is on record as “high polyreactivity”.
For “QVQLVESGGGLVQAGGSLRLSCAASGRIFWYYAMGGYRQAPGKERELVASITSGGRTKYADSVKGRFTISRDNAKNTVYLQMNSLKPEDTAVYYCAARLLIDYHADWWVAYDYWGQGTQVTVSS” the value was “low polyreactivity”; for “QVQLVESGGGLVQAGGSLRLSCAASGRIFWYYAMGWYRQAPGKEREFVAAITRRGGSTYYADSVKGRFTISRDNAKNTVYLQMNSLKPEDTAVYYCAAVGQKRSLGYSWGQGTQVTVSS”, “low polyreactivity”; for “QVQLVESGGGLVQAGGSLRLSCAASGRIFWYYGMGWYRQAPGKERELVASIRSGGSTNYADSVKGRFTISRDNAKNSVYLQMNSLKPEDTAVYYCAARPDYRYHYWGQGTQVTVSS”, “high polyreactivity”.
On to “QVQLVESGGGLVQAGGSLRLSCAASGRIFYANAMGWYRQAPGKERELVASISTTGDSTYYADSVKGRFTISRDNAKNTDYLQMNSLKPEDTAVYYCNTRGSEYLWYGYDYWGQGTQVTVSS”, for which the “polyreactivity (PSR sort gate)” value is given as “low polyreactivity”.
For “QVQLVESGGGLVQAGGSLRLSCAASGRIFYAYAMGWYRQAPGKERELVAAITFSGGSTYADSVKGRFTISRDNAKNTVYLQMNSLKPEDTAVYYCAADFGRHPRDYDYYWGQGTQVTVSL” the value was “low polyreactivity”; for “QVQLVESGGGLVQAGGSLRLSCAASGRIFYAYTMGWYRQAPGKERELVAAISGSGSTYYADSVKGRFTISRDNAKNTVYLQMNSLKPEDTAVYYCAADVTGGRKYDYWGQGTQVTVSS”, “low polyreactivity”.
With “QVQLVESGGGLVQAGGSLRLSCAASGRIFYDNAMGWYRQAPGKERELVAAIRIGGSTNYADSVKGRFTISRDNAKNTVYLQMNSLKPEDTAVYYCNGSDNPDSYYPDSVWGDSWGQGSQVTVSS” the entry was “low polyreactivity”; with “QVQLVESGGGLVQAGGSLRLSCAASGRIFYFNAMGWYRQAPGKEREFVASINSIGDSTYYADSVKGRFTISRDNAKNTVYLHMNSLKPEDTAVYYCNADHGVINYRLDYWGQGTQVTVSS”, “low polyreactivity”.
For “QVQLVESGGGLVQAGGSLRLSCAASGRIFYFNAMGWYRQAPGKERELDAAISWSGGSTYYADSVKGRFTISRDNAKNTVYLQMNSLKPEDTAVYSCATDSYRQGDYYRGRVDYWGQGTQVTVSS” the value was “low polyreactivity”.
